Sequences and labels used below:
B1: ZmTR1 protein (protein)
chain: MAGDDHVVVDVNGLAKSKDDGGSKKLSEDANGSAPAAASLSAAVDLVQEEEEEEGDGEEQPLIQAAECRICQEEDSVKNLEKPCACSGSLKYAHRACVQRWCNEKGDTTCEICHEEYKPGYTAPPRVQPDETTIDIDGDLVMDLRDPRILAVAAAQHRLLEAEYDGYASTDASGAAFCRSAALILMALLLLRHALSMSDNEGNDDDASTIFSLFLLRAAGFLLPCYIMAWIFSILHRRRQRQEEAALAAAEVAFILQSARGRALQFAIAPDSPATPQHEPVSQQQQ
B2: AtTR1 protein (protein)
chain: MADHLSLCTDRLITSESLDSEKDSDSSGESSYRPQGTDLASSSVNETEVPREYYAVADEEEPLLQSVECRICQEEDSTKNLEAPCACNGSLKYAHRKCVQRWCNEKGDITCEICHQPYQHGYTAPPPPPPDETIIHIGDDWENGVPLDLTDPRILAMAAAERHFLEADYDEYSENNSSGAAFCRSAALILMALLLLRDALNLTTNPDDEDDPTAFFSLFLLRAAGFLLPCYIMAWAIGILQRRRQRQEAAALAAAEVTFMIHGGGPQRRGLHFAVAPQPPISNVPTPV
B3: OsTR1-1 protein (protein)
chain: MGDHVAVDVGGLMASRGAGEEETGALIGMVECRICQEEDLAKNLESPCACSGSLKYAHRECVQRWCNEKGDIICEICHVSYKPGYTAPPQVHHDETTIEISSGDWSISGNRLDLHDPRILAMAAAQHRLLEDEYDEYTATNNNAAAFCRSIFLILMALLLLRHTLTITSSDDEDDASAIFSLFLLRAAGFLLPCYIMAWAISIMQRQRQRQEEAMLLPTEVAIILHRNGRTMQFAVAPESPTTPHPEQGQ

Here are results for three proteins from US20130055470.

The target in this data set is ubiquitin.
For the protein B1, the “E3 ubiquitin ligase activity (in vitro ubiquitination reaction, anti-Ub Western blot)” value is “multiple bands occurred in the lane with the addition of E1, E2, ATP and Ub, while no band occurred in the control”.
For B2 the value was “multiple bands occurred in the lane with the addition of E1, E2, ATP and Ub, while no band occurred in the control”; for B3, “multiple bands occurred in the lane with the addition of E1, E2, ATP and Ub, while no band occurred in the control”.
